Assay results from paper PMC9734910.

Biological target: Bat37ACE2(18–740) (Pipistrellus pipistrellus (Bat37))
Experiment: […]; 20 mM HEPES, 100 mM NaCl, pH 7.5

## Bat37ACE2(18–740) (domain or fragment)
  stoichiometry N: 2
